T1: Zaire GP (1–320) with a His tag (Ebolavirus, Zaire strain, UniProt Q05320 33-320)
T1 chain: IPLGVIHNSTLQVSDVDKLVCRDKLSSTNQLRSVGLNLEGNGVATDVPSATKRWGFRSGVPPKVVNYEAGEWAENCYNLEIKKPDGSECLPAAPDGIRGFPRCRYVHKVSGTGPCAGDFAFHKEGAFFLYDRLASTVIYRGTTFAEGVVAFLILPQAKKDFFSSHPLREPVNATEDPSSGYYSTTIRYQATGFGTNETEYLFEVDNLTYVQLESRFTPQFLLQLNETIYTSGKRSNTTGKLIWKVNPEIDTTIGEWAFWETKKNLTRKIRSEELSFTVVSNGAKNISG

B1: T14 (FG) chimera: hTIM-1 Ig V with the FG loop of hTIM-4 (domain or fragment)
chain: VKVGGEAGPSVTLPCHYSGAVTSMCWNRGSCSLFTCQNGIVWTNGTHVTYRKDTRYKLLGDLSRRDVSLTIENTAVSDSGVYCCRVEVPGWFNDMKITVSLEIVPPKV
B2: T41 (CC’-FG) chimera: hTIM-4 Ig V with the CC’ and FG loops of hTIM-1 (domain or fragment)
chain: VTSETVVTEVLGHRVTLPCLYSSWSHNSNSMCWNRGSCSLFTCKEALIRTDGMRVTSRKSAKYRLQGTIPRGDVSLTILNPSESDSGVYCCRIEHRGWFNDVKINVRLNLQRASTT
B3: T41 (BC-CC’-FG) chimera: hTIM-4 Ig V with the BC, CC’ and FG loops of hTIM-1 (domain or fragment)
chain: VTSETVVTEVLGHRVTLPCLYSGAVTSMCWNRGSCSLFTCKEALIRTDGMRVTSRKSAKYRLQGTIPRGDVSLTILNPSESDSGVYCCRIEHRGWFNDVKINVRLNLQRASTT
B4: T41 (BC-CC’) chimera: hTIM-4 Ig V with the BC and CC’ loops of hTIM-1 (domain or fragment)
chain: B3 chain with H92V, R93P

Substitutions are numbered along the chain they refer to.

The target of the assay is T1, Zaire GP (1–320) with a His tag. Nature of the assay: SPR. On the technique in general: Surface plasmon resonance follows binding to a sensor surface in real time, without labels.
For orientation: Kd means the concentration at which binding is half-saturated. For the molecule B1, the Kd amounted to 57.9 µM. Next, B2: 208 µM; B3: 72.4 µM. The value for B4 was 73.2 µM.

Values taken from publication PMC4624681 (2015).
